Laboratory results from the supplement of paper PMC10567573.

B1: ZNF8 (parent)
chain: RTHTGEKPYTCSVCGKSFSRTTCL

Variants of: B1
Experiment: protein stability index of a GFP-peptide fusion (GPS, HEK-293T) (PSI 1-6); higher = more stable
Details: c terminus: a fixed tail appended
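Note: lentivirally expressed fusions sorted by FACS into six bins by GFP to DsRed ratio, PSI derived from sequencing read proportions per bin multiplied by bin number.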

Q: For RTHTGEKPYTCSVCLKSFSRTTCL, which protein stability index is on record?
A: The protein stability index was 1.99.

Q: With RTHTGEKPYTCSVCVKSFSRTTCL as the variant, how does the protein stability index read?
A: The protein stability index was 1.73.

Q: Which protein stability index does the source give for RTHTGEKPYTCSVCEKSFSRTTCL here?
A: Its protein stability index is 2.15.

Q: For RTHTGEKPYTCSVCYKSFSRTTCL, which protein stability index is on record?
A: The protein stability index was 1.32.

Q: With RTHTGEKPYTCSVCRKSFSRTTCL as the variant, how does the protein stability index read?
A: The protein stability index was 2.17.

Q: Which protein stability index does the source give for RTHTGEKPYTCSVCIKSFSRTTCL here?
A: The protein stability index was 1.46.

Q: Which protein stability index does the source give for RTHTGEKPYTCSVCTKSFSRTTCL here?
A: The protein stability index was 1.65.

Q: Which protein stability index does the source give for RTHTGEKPYTCSVCMKSFSRTTCL here?
A: Its protein stability index is 1.6.

Q: With RTHTGEKPYTCSVCCKSFSRTTCL as the variant, how does the protein stability index read?
A: The protein stability index was 1.83.

Q: Which protein stability index does the source give for RTHTGEKPYTCSVCQKSFSRTTCL here?
A: The protein stability index was 1.75.

Q: For RTHTGEKPYTCSVCWKSFSRTTCL, which protein stability index is on record?
A: Its protein stability index is 1.43.

Q: Which protein stability index does the source give for RTHTGEKPYTCSVCDKSFSRTTCL here?
A: Its protein stability index is 2.36.

Q: Which protein stability index does the source give for RTHTGEKPYTCSVCNKSFSRTTCL here?
A: The protein stability index was 1.92.

Q: Which protein stability index does the source give for RTHTGEKPYTCSVCKKSFSRTTCL here?
A: Its protein stability index is 2.25.

Q: With RTHTGEKPYTCSVCSKSFSRTTCL as the variant, how does the protein stability index read?
A: The protein stability index was 1.87.

Q: Which protein stability index does the source give for RTHTGEKPYTCSVCAKSFSRTTCL here?
A: The protein stability index was 1.88.

Q: With RTHTGEKPYTCSVCFKSFSRTTCL as the variant, how does the protein stability index read?
A: The protein stability index was 2.28.

Q: For RTHTGEKPYTCSVCPKSFSRTTCL, which protein stability index is on record?
A: The protein stability index was 2.57.

Q: With RTHTGEKPYTCSVCHKSFSRTTCL as the variant, how does the protein stability index read?
A: The protein stability index was 1.81.

Q: For RTHTGEKPYTCSVCGKSMSRTTCL, which protein stability index is on record?
A: Its protein stability index is 1.89.

Q: For RTHTGEKPYTCSVCGKSQSRTTCL, which protein stability index is on record?
A: The protein stability index was 2.39.

Q: With RTHTGEKPYTCSVCGKSTSRTTCL as the variant, how does the protein stability index read?
A: Its protein stability index is 2.48.

Q: Which protein stability index does the source give for RTHTGEKPYTCSVCGKSSSRTTCL here?
A: Its protein stability index is 2.73.

Q: Which protein stability index does the source give for RTHTGEKPYTCSVCGKSNSRTTCL here?
A: The protein stability index was 2.53.

Q: For RTHTGEKPYTCSVCGKSESRTTCL, which protein stability index is on record?
A: The protein stability index was 3.37.

Q: For RTHTGEKPYTCSVCGKSLSRTTCL, which protein stability index is on record?
A: The protein stability index was 3.4.

Q: Which protein stability index does the source give for RTHTGEKPYTCSVCGKSGSRTTCL here?
A: Its protein stability index is 2.84.

Q: Which protein stability index does the source give for RTHTGEKPYTCSVCGKSRSRTTCL here?
A: The protein stability index was 2.56.

Q: With RTHTGEKPYTCSVCGKSPSRTTCL as the variant, how does the protein stability index read?
A: Its protein stability index is 2.01.

Q: With RTHTGEKPYTCSVCGKSWSRTTCL as the variant, how does the protein stability index read?
A: The protein stability index was 2.43.

Q: With RTHTGEKPYTCSVCGKSVSRTTCL as the variant, how does the protein stability index read?
A: Its protein stability index is 2.5.

Q: With RTHTGEKPYTCSVCGKSISRTTCL as the variant, how does the protein stability index read?
A: The protein stability index was 1.54.

Q: For RTHTGEKPYTCSVCGKSDSRTTCL, which protein stability index is on record?
A: The protein stability index was 2.92.

Q: Which protein stability index does the source give for RTHTGEKPYTCSVCGKSHSRTTCL here?
A: The protein stability index was 4.78.

Q: Which protein stability index does the source give for RTHTGEKPYTCSVCGKSKSRTTCL here?
A: The protein stability index was 2.5.

Q: Which protein stability index does the source give for RTHTGEKPYTCSVCGKSYSRTTCL here?
A: Its protein stability index is 2.23.

Q: For RTHTGEKPYTCSVCGKSCSRTTCL, which protein stability index is on record?
A: Its protein stability index is 3.45.

Q: For RTHTGEKPYTCDVCGKSFSRTTCL, which protein stability index is on record?
A: The protein stability index was 2.59.

Q: With RTHTGEKPYTCHVCGKSFSRTTCL as the variant, how does the protein stability index read?
A: Its protein stability index is 2.41.

Q: Which protein stability index does the source give for RTHTGEKPYTCAVCGKSFSRTTCL here?
A: The protein stability index was 2.96.

Q: Which protein stability index does the source give for RTHTGEKPYTCYVCGKSFSRTTCL here?
A: Its protein stability index is 2.27.

Q: With RTHTGEKPYTCKVCGKSFSRTTCL as the variant, how does the protein stability index read?
A: Its protein stability index is 2.13.

Q: For RTHTGEKPYTCTVCGKSFSRTTCL, which protein stability index is on record?
A: The protein stability index was 2.52.

Q: With RTHTGEKPYTCRVCGKSFSRTTCL as the variant, how does the protein stability index read?
A: The protein stability index was 2.21.

Q: Which protein stability index does the source give for RTHTGEKPYTCCVCGKSFSRTTCL here?
A: The protein stability index was 2.13.

Q: With RTHTGEKPYTCEVCGKSFSRTTCL as the variant, how does the protein stability index read?
A: The protein stability index was 2.72.

Q: For RTHTGEKPYTCPVCGKSFSRTTCL, which protein stability index is on record?
A: The protein stability index was 2.7.

Q: Which protein stability index does the source give for RTHTGEKPYTCFVCGKSFSRTTCL here?
A: Its protein stability index is 2.05.

Q: For RTHTGEKPYTCQVCGKSFSRTTCL, which protein stability index is on record?
A: The protein stability index was 2.33.

Q: With RTHTGEKPYTCMVCGKSFSRTTCL as the variant, how does the protein stability index read?
A: The protein stability index was 2.34.

Q: Which protein stability index does the source give for RTHTGEKPYTCIVCGKSFSRTTCL here?
A: Its protein stability index is 2.11.

Q: For RTHTGEKPYTCLVCGKSFSRTTCL, which protein stability index is on record?
A: The protein stability index was 2.22.

Q: Which protein stability index does the source give for RTHTGEKPYTCVVCGKSFSRTTCL here?
A: Its protein stability index is 2.21.

Q: For RTHTGEKPYTCGVCGKSFSRTTCL, which protein stability index is on record?
A: The protein stability index was 2.02.

Q: For RTHTGEKPYTCNVCGKSFSRTTCL, which protein stability index is on record?
A: The protein stability index was 2.24.

Q: With RTHTGEKPYTCWVCGKSFSRTTCL as the variant, how does the protein stability index read?
A: The protein stability index was 2.17.

Q: With RTHTGEKPYTCSVFGKSFSRTTCL as the variant, how does the protein stability index read?
A: The protein stability index was 2.1.

Q: For RTHTGEKPYTCSVMGKSFSRTTCL, which protein stability index is on record?
A: Its protein stability index is 2.88.

Q: Which protein stability index does the source give for RTHTGEKPYTCSVRGKSFSRTTCL here?
A: The protein stability index was 2.19.

Q: With RTHTGEKPYTCSVSGKSFSRTTCL as the variant, how does the protein stability index read?
A: The protein stability index was 2.41.

Q: For RTHTGEKPYTCSVHGKSFSRTTCL, which protein stability index is on record?
A: Its protein stability index is 2.89.

Q: Which protein stability index does the source give for RTHTGEKPYTCSVDGKSFSRTTCL here?
A: Its protein stability index is 2.77.

Q: Which protein stability index does the source give for RTHTGEKPYTCSVKGKSFSRTTCL here?
A: The protein stability index was 3.06.

Q: For RTHTGEKPYTCSVQGKSFSRTTCL, which protein stability index is on record?
A: The protein stability index was 2.17.

Q: With RTHTGEKPYTCSVWGKSFSRTTCL as the variant, how does the protein stability index read?
A: The protein stability index was 1.42.

Q: Which protein stability index does the source give for RTHTGEKPYTCSVLGKSFSRTTCL here?
A: The protein stability index was 2.76.

Q: For RTHTGEKPYTCSVAGKSFSRTTCL, which protein stability index is on record?
A: The protein stability index was 2.17.

Q: With RTHTGEKPYTCSVNGKSFSRTTCL as the variant, how does the protein stability index read?
A: The protein stability index was 2.87.

Q: For RTHTGEKPYTCSVTGKSFSRTTCL, which protein stability index is on record?
A: Its protein stability index is 2.46.

Q: With RTHTGEKPYTCSVIGKSFSRTTCL as the variant, how does the protein stability index read?
A: Its protein stability index is 2.34.

Q: For RTHTGEKPYTCSVVGKSFSRTTCL, which protein stability index is on record?
A: The protein stability index was 3.13.

Q: With RTHTGEKPYTCSVYGKSFSRTTCL as the variant, how does the protein stability index read?
A: The protein stability index was 2.06.

Q: Which protein stability index does the source give for RTHTGEKPYTCSVGGKSFSRTTCL here?
A: The protein stability index was 1.99.

Q: With RTHTGEKPYTCSVPGKSFSRTTCL as the variant, how does the protein stability index read?
A: Its protein stability index is 2.82.

Q: Which protein stability index does the source give for RTHTGEKPYTCSVEGKSFSRTTCL here?
A: The protein stability index was 2.46.

Q: With RTHTGEKPYTCSVCGKLFSRTTCL as the variant, how does the protein stability index read?
A: The protein stability index was 2.34.

Q: Which protein stability index does the source give for RTHTGEKPYTCSVCGKAFSRTTCL here?
A: Its protein stability index is 2.48.

Q: Which protein stability index does the source give for RTHTGEKPYTCSVCGKQFSRTTCL here?
A: The protein stability index was 2.58.

Q: Which protein stability index does the source give for RTHTGEKPYTCSVCGKCFSRTTCL here?
A: Its protein stability index is 3.72.

Q: With RTHTGEKPYTCSVCGKKFSRTTCL as the variant, how does the protein stability index read?
A: Its protein stability index is 2.87.

Q: Which protein stability index does the source give for RTHTGEKPYTCSVCGKVFSRTTCL here?
A: Its protein stability index is 2.67.

Q: With RTHTGEKPYTCSVCGKMFSRTTCL as the variant, how does the protein stability index read?
A: The protein stability index was 2.03.

Q: Which protein stability index does the source give for RTHTGEKPYTCSVCGKTFSRTTCL here?
A: Its protein stability index is 2.63.

Q: For RTHTGEKPYTCSVCGKRFSRTTCL, which protein stability index is on record?
A: Its protein stability index is 2.77.

Q: For RTHTGEKPYTCSVCGKWFSRTTCL, which protein stability index is on record?
A: The protein stability index was 1.82.

Q: For RTHTGEKPYTCSVCGKEFSRTTCL, which protein stability index is on record?
A: The protein stability index was 2.4.

Q: Which protein stability index does the source give for RTHTGEKPYTCSVCGKDFSRTTCL here?
A: The protein stability index was 2.55.

Q: Which protein stability index does the source give for RTHTGEKPYTCSVCGKPFSRTTCL here?
A: Its protein stability index is 3.07.

Q: For RTHTGEKPYTCSVCGKFFSRTTCL, which protein stability index is on record?
A: Its protein stability index is 1.48.

Q: For RTHTGEKPYTCSVCGKNFSRTTCL, which protein stability index is on record?
A: Its protein stability index is 2.36.

Q: Which protein stability index does the source give for RTHTGEKPYTCSVCGKHFSRTTCL here?
A: Its protein stability index is 2.69.

Q: Which protein stability index does the source give for RTHTGEKPYTCSVCGKYFSRTTCL here?
A: The protein stability index was 2.14.

Q: Which protein stability index does the source give for RTHTGEKPYTCSVCGKIFSRTTCL here?
A: Its protein stability index is 2.17.

Q: For RTHTGEKPYTCSVCGKGFSRTTCL, which protein stability index is on record?
A: The protein stability index was 1.73.
